Measured values: patent US20190024066A1
Where “and” joins values, the source holds several entries; their conditions need not be identical. Identical values can stand only once.

Columns and labels:
[1] = biological target: His-tagged FcγRI (R&D Systems) (human) (UniProt P12314); assay: competition ELISA, His-FcγRI, competitor coated anti-idiotype antibody; 0.08 µg/ml
[2] = biological target: mouse neonatal Fc receptor (mFcRn) (mouse) (UniProt Q61559); assay: SPR
[3] = biological target: His-tagged FcγRIIa (FcγRIIaR, R&D Systems) (human) (UniProt P12318); assay: competition ELISA, His-FcγRIIaR, competitor coated HZ 15C1; concentration cell 0.790496
[4] = biological target: His-tagged FcγRIIa (FcγRIIaR, R&D Systems) (human) (UniProt P12318); assay: competition ELISA, His-FcγRIIaR, competitor coated HZ 15C1; concentration cell 2.22185
[5] = biological target: His-tagged FcγRIIa (FcγRIIaR, R&D Systems) (human) (UniProt P12318); assay: competition ELISA, His-FcγRIIaR, competitor coated HZ 15C1; concentration cell -0.16368
[6] = biological target: His-tagged FcγRI (R&D Systems) (human) (UniProt P12314); assay: competition ELISA, His-FcγRI, competitor coated anti-idiotype antibody; 0.016 µg/ml
[7] = biological target: human neonatal Fc receptor (hFcRn), biotinylated (human) (UniProt P55899); assay: SPR, biotinylated hFcRn on streptavidin chip, IgG injected, pH 6.0
[8] = biological target: FcγRIIIaV with a hexahistidine tag (R&D Systems) (human) (UniProt P08637); assay: BLI, His-FcγRIIIaV on anti-penta-His sensor, steady-state model
[9] = biological target: His-tagged FcγRIIa (FcγRIIaR, R&D Systems) (human) (UniProt P12318); assay: competition ELISA, His-FcγRIIaR, competitor coated HZ 15C1; concentration cell 0.313445
[10] = biological target: His-tagged FcγRIIb (R&D Systems) (human) (UniProt P31994); assay: competition ELISA, His-FcγRIIb, competitor coated HZ 15C1; 333.33 µg/ml
[11] = biological target: His-tagged FcγRI (R&D Systems) (human) (UniProt P12314); assay: competition ELISA, His-FcγRI, competitor coated anti-idiotype antibody; 2 µg/ml
[12] = biological target: His-tagged FcγRIIb (R&D Systems) (human) (UniProt P31994); assay: competition ELISA, His-FcγRIIb, competitor coated HZ 15C1; 111.11 µg/ml
[13] = biological target: His-tagged FcγRI (R&D Systems) (human) (UniProt P12314); assay: competition ELISA, His-FcγRI, competitor coated anti-idiotype antibody; 0.0032 µg/ml
[14] = biological target: His-tagged FcγRIIb (R&D Systems) (human) (UniProt P31994); assay: competition ELISA, His-FcγRIIb, competitor coated HZ 15C1; 37.04 µg/ml
[15] = biological target: His-tagged FcγRI (R&D Systems) (human) (UniProt P12314); assay: competition ELISA, His-FcγRI, competitor coated anti-idiotype antibody; 10 µg/ml
[16] = biological target: His-tagged FcγRI (R&D Systems) (human) (UniProt P12314); assay: competition ELISA, His-FcγRI, competitor coated anti-idiotype antibody; 0.4 µg/ml
[17] = biological target: His-tagged FcγRIIa (FcγRIIaR, R&D Systems) (human) (UniProt P12318); assay: competition ELISA, His-FcγRIIaR, competitor coated HZ 15C1; concentration cell -0.64016
CD20 on Raji cells [18] = biological target: CD20 on Raji cells (UniProt P11836); assay: flow cytometry, Raji cells; 0.039063 µg/mL
CD20 on Raji cells [19] = biological target: CD20 on Raji cells (UniProt P11836); assay: flow cytometry, Raji cells; 0.009766 µg/mL
[20] = biological target: His-tagged FcγRI (R&D Systems) (human) (UniProt P12314); assay: competition ELISA, His-FcγRI, competitor coated anti-idiotype antibody; 0.0006 µg/ml
CD20 on Raji cells [21] = biological target: CD20 on Raji cells (UniProt P11836); assay: flow cytometry, Raji cells; 0.00061 µg/mL
CD20 on Raji cells [22] = biological target: CD20 on Raji cells (UniProt P11836); assay: flow cytometry, Raji cells; 2.5 µg/mL
[23] = biological target: His-tagged FcγRIIa (FcγRIIaR, R&D Systems) (human) (UniProt P12318); assay: competition ELISA, His-FcγRIIaR, competitor coated HZ 15C1; concentration cell 1.267617
[24] = biological target: His-tagged FcγRIIa (FcγRIIaR, R&D Systems) (human) (UniProt P12318); assay: competition ELISA, His-FcγRIIaR, competitor coated HZ 15C1; concentration cell 2.69897
[25] = biological target: His-tagged FcγRIIb (R&D Systems) (human) (UniProt P31994); assay: competition ELISA, His-FcγRIIb, competitor coated HZ 15C1; 12.35 µg/ml
[26] = biological target: His-tagged FcγRIIa (FcγRIIaR, R&D Systems) (human) (UniProt P12318); assay: competition ELISA, His-FcγRIIaR, competitor coated HZ 15C1; concentration cell 1.744731
CD20 on Raji cells [27] = biological target: CD20 on Raji cells (UniProt P11836); assay: flow cytometry, Raji cells; […]
CD20 on Raji cells [28] = biological target: CD20 on Raji cells (UniProt P11836); assay: flow cytometry, Raji cells; 0.625 µg/mL
[29] = biological target: His-tagged FcγRIIb (R&D Systems) (human) (UniProt P31994); assay: competition ELISA, His-FcγRIIb, competitor coated HZ 15C1; 1000 µg/ml
[30] = biological target: His-tagged FcγRIIb (R&D Systems) (human) (UniProt P31994); assay: competition ELISA, His-FcγRIIb, competitor coated HZ 15C1; 4.12 µg/ml
CD20 on Raji cells [31] = biological target: CD20 on Raji cells (UniProt P11836); assay: flow cytometry, Raji cells; 10 µg/mL
[32] = biological target: His-tagged FcγRIIb (R&D Systems) (human) (UniProt P31994); assay: competition ELISA, His-FcγRIIb, competitor coated HZ 15C1; 3000 µg/ml
CD20 on Raji cells [33] = biological target: CD20 on Raji cells (UniProt P11836); assay: flow cytometry, Raji cells; 0.15625 µg/mL
[34] = biological target: His-tagged FcγRI (R&D Systems) (human) (UniProt P12314); assay: competition ELISA, His-FcγRI, competitor coated anti-idiotype antibody; 50 µg/ml

Chain of UniProt P12318 (P12318 36-218 H167R limits assumed): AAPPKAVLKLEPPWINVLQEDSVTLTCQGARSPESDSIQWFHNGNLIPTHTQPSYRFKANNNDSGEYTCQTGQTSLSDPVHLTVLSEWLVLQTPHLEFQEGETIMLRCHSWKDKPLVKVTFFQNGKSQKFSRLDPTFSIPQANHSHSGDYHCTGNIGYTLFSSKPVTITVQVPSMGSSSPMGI
Chain of UniProt P31994 (P31994 46-217 limits assumed): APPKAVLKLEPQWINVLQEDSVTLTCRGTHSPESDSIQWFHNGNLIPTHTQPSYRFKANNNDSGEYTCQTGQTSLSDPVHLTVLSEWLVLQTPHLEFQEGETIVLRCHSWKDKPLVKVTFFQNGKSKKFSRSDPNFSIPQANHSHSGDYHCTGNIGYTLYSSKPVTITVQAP
Chain of UniProt P11836 (P11836 whole entry): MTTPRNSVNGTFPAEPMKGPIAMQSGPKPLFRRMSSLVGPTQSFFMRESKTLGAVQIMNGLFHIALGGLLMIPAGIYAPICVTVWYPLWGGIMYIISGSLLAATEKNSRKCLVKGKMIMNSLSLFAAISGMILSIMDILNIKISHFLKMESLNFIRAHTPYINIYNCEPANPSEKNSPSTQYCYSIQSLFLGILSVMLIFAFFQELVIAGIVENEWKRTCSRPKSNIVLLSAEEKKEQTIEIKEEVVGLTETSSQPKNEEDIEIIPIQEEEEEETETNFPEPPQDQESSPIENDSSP
Chain of UniProt P12314 (P12314 16-288 limits assumed): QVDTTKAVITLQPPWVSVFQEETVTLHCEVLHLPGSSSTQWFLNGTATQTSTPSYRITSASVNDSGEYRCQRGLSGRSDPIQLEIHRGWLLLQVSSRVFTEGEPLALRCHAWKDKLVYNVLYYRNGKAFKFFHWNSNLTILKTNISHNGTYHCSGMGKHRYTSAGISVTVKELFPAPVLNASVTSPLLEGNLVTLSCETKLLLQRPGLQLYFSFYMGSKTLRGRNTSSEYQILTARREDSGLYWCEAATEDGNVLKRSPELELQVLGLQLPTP
Chain of UniProt P55899 (P55899 24-297 limits assumed): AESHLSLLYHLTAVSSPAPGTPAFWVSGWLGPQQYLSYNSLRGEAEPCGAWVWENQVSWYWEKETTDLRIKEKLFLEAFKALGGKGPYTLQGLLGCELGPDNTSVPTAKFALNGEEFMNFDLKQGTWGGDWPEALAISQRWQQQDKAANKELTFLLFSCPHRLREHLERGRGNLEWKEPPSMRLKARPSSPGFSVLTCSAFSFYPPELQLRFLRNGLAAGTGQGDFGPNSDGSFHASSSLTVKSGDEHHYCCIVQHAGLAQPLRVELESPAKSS
Chain of UniProt P08637 (P08637 17-208 F176V limits assumed): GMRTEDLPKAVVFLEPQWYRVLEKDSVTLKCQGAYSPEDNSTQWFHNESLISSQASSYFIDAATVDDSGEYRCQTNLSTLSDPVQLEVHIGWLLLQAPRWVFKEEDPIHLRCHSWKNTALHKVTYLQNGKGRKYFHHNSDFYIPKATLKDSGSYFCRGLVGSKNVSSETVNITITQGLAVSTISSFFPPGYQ
Chain of UniProt Q61559 (Q61559 22-297 limits assumed): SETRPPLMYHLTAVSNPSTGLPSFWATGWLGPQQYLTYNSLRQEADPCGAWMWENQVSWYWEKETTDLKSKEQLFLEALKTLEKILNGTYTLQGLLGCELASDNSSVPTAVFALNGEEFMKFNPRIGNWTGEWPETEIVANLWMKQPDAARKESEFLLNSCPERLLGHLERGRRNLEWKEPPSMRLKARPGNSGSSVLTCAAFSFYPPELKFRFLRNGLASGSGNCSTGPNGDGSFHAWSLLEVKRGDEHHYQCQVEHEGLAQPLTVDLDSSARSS

absorbance at 450 nm [1]: 2.24 and 2.2 and 2.33
Kd [2]: 0.258 nM
absorbance at 450 nm [3]: 2.56 and 2.91 and 2.98
absorbance at 450 nm [4]: 1.5 and 1.64 and 1.68
absorbance at 450 nm [5]: 2.69 and 3.02 and 3.1
absorbance at 450 nm [6]: 3.05 and 3.04 and 3.16
Kd [7]: 5.6 nM
Kd [8]: 500 nM
absorbance at 450 nm [9]: 2.57 and 2.96 and 2.93
absorbance at 450 nm [10]: 1.06 and 1.1
absorbance at 450 nm [11]: 0.388 and 0.379 and 0.377
absorbance at 450 nm [12]: 1.52 and 1.49
absorbance at 450 nm [13]: 3.39 and 3.4 and 3.44
absorbance at 450 nm [14]: 1.66 and 1.54
absorbance at 450 nm [15]: 0.143 and 0.141
absorbance at 450 nm [16]: 1.14 and 1.1 (2×)
absorbance at 450 nm [17]: 2.6 and 2.88 and 2.98
flow cytometry signal (name not given) (CD20 on Raji cells [18]): 241 and 234 and 210
flow cytometry signal (name not given) (CD20 on Raji cells [19]): 76.4 and 79.7 and 72.2
absorbance at 450 nm [20]: 3.43 and 3.6 (2×)
flow cytometry signal (name not given) (CD20 on Raji cells [21]): 14.1 and 12.3 and 11.3
flow cytometry signal (name not given) (CD20 on Raji cells [22]): 2150 and 2180 and 1920
absorbance at 450 nm [23]: 2.43 and 2.91 and 2.73
absorbance at 450 nm [24]: 0.684 and 0.732 and 0.671
absorbance at 450 nm [25]: 1.99 and 1.87
absorbance at 450 nm [26]: 2.11 and 2.46 and 2.36
flow cytometry signal (name not given) (CD20 on Raji cells [27]): 28.6 and 27.5 and 23.2
flow cytometry signal (name not given) (CD20 on Raji cells [28]): 1500 and 1520 and 1550
absorbance at 450 nm [29]: 0.641 and 0.629
absorbance at 450 nm [30]: 2.27 and 1.92
flow cytometry signal (name not given) (CD20 on Raji cells [31]): 2640 and 2560 and 2580
absorbance at 450 nm [32]: 0.284 and 0.274
flow cytometry signal (name not given) (CD20 on Raji cells [33]): 673 (2×) and 644
absorbance at 450 nm [34]: 0.085 and 0.091 and 0.084
Substance: 293S anti-CD20 (monoclonal anti-CD20 antibody obinutuzumab, GA101, produced in 293S cells)
